Patent US20250154240A1, “ANTI-HUMAN CXCL1 ANTIBODY” (CHIOME BIOSCIENCE INC., priority 2022, published 2025)

Key:
CXCR2-expressing cells = test: In vivo CXCR2-expressing cell migration inhibitory activity, treatment model with OCUM-12 orthotopic transplantation; parameters: species or system mouse
Text: The stomachs after measurement were excised and fixed overnight at room temperature with a 10% neutral buffered formalin solution (Wako Pure Chemical Industries, Ltd., Japan), followed by replacement with PBS. Then, paraffin embedding and section preparation were outsourced to Applied Medical Research Laboratory, Japan. The prepared gastric tumor sections were immunohistologically stained with an anti-CXCR2 antibody to evaluate in vivo CXCR2 cell migration inhibitory activity. The sections were deparaffinized and rehydrated, and then treated to inactivate endogenous peroxidase. After antigen activation treatment, the sections were blocked with PBS containing 2% skimmed milk and 0.1% Tween-20 (hereinafter referred to as the blocking solution), and reacted overnight at 4° C. with an anti-CXCR2 antibody (Biorbyt) as a primary antibody, which had been diluted 1667-fold with the blocking solution. After washing with PBS containing 0.1% Tween-20, the sections were reacted at room temperature for 1 hour with an HRP-labeled goat anti-rabbit IgG antibody (Abcam) as a secondary antibody. […]
The dose-response relationship between antibody dose and in vivo antitumor activity or CXCR2 migration inhibitory activity was evaluated in a xenograft treatment model with OCUM-12 orthotopic transplantation. […] After 4 weeks had passed from the transplantation, the mice were sacrificed and evaluated.

HuCXCL2 = biological target: T1, HuCXCL2 (Homo sapiens, UniProt P19875); test: FACS, inhibition of binding of APC-labeled HuCXCL2 to HEK293 cells forced to express HuCXCR2; format: cell-based; details: APC-labeled ligand 10 μg/mL; HEK293 cells expressing HuCXCR2
T1 construct: purchased PROTEINTECH
T1 sequence (P19875 35-107): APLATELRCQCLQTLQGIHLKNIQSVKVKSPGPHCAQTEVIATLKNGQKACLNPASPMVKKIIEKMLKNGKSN
Description: (§1) Chemokines are stabilized by directly binding to GAG on the cell surface and thereby allow efficient signal transduction to their receptors. […] Then, to evaluate whether Hu5A-5E11 inhibits the binding of CXCLs to cells, the binding of fluorescently labeled CXCLs to cells was measured as fluorescence intensity by flow cytometry in FACS. For this purpose, HEK293 cells forced to express HuCXCR2 were used. For use as HuCXCL1, 2, 3 and 5 and MsCXCL1, the proteins in above were labeled with APC.
(§2) The cultured cells were detached and washed with PBS, and then suspended at 5.0× 10^5 cells/mL in PBS containing 1% BSA (hereinafter referred to as the FACS buffer). Each of the APC-labeled ligands and Hu5A-5E11 were mixed at final concentrations of 10 μg/mL and 16.7 μg/mL, respectively, and reacted at room temperature for 30 minutes, and then added to the cell suspension and reacted on ice for 30 minutes. After washing with the FACS buffer, the cells were suspended again in PBS containing 1% 7-AAD, 0.5% BSA and 2 mM EDTA, followed by the above flow cytometry to measure fluorescence intensity.

HuCXCL3 = biological target: T2, HuCXCL3 (Homo sapiens, UniProt P19876); test: FACS, inhibition of binding of APC-labeled HuCXCL3 to HEK293 cells forced to express HuCXCR2; format: cell-based; details: APC-labeled ligand 10 μg/mL; HEK293 cells expressing HuCXCR2
T2 construct: purchased PROTEINTECH
T2 sequence (P19876 35-107): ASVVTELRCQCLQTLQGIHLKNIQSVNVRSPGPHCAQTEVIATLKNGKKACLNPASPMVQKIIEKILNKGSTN
Description: as §1, §2

MsCXCL1 [1] = biological target: T3, MsCXCL1 (Mus musculus, UniProt P12850); test: ELISA, inhibition of binding of MsCXCL1 to GAG (heparin, heparan sulfate); format: biochemical; parameters: purchased PROTEINTECH; details: antibody 0 to 10 μg/mL; biotin-labeled heparin or heparan sulfate 10 μg/mL
T3 sequence (P12850 25-96): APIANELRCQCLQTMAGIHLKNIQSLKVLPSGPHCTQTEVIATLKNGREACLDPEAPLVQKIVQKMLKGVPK
Description: Thus, the effect of Hu5A-5E11 on the binding of CXCLs to GAG was evaluated by ELISA assay using plates on which the antigen (HuCXCL1 protein) used for immunization or HuCXCL2, 3 and 5 and MsCXCL1 and 2 proteins had been directly immobilized. CXCLs other than HuCXCL1 were purchased from PROTEINTECH and used. Biotin-labeled heparan sulfate and heparin were purchased from PG Research and used.
To 96-well plates, phosphate-buffered saline (PBS) containing 3 μg/mL of HuCXCL1, 2, 3 or 5 or MsCXCL1 or 10 μg/mL of MsCXCL2 was added in a volume of 50 μL per well, and the plates were allowed to stand overnight at 4° C. After removal of the antigen solutions, PBS containing 0.05% Tween-20 (hereinafter referred to as the blocking solution) was added to each well for blocking reaction, and the plates were allowed to stand at room temperature for 30 minutes. […] TMB (Dako) was added as a chromogenic substrate solution to cause color development, and 1 N sulfuric acid was added to stop the reaction, followed by measurement of absorbance at 450 nm. The binding rate of CXCLs to GAG was calculated as a ratio relative to the absorbance measured in the absence of the antibody, which was set to 100%.

HuCXCL5 = biological target: T4, HuCXCL5 (Homo sapiens, UniProt P42830); test: FACS, inhibition of binding of APC-labeled HuCXCL5 to HEK293 cells forced to express HuCXCR2; format: cell-based; parameters: purchased PROTEINTECH; host or cells: CXCR2: transfected HEK293 cells; details: APC-labeled ligand 10 μg/mL; HEK293 cells expressing HuCXCR2
T4 sequence (P42830 37-114): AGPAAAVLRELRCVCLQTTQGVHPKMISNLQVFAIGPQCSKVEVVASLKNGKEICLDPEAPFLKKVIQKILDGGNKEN
Description: as §1, §2

MsCXCL1 [2] = biological target: T3, MsCXCL1; test: FACS, inhibition of binding of APC-labeled MsCXCL1 to HEK293 cells forced to express HuCXCR2; format: cell-based; parameters: purchased PROTEINTECH; host or cells: CXCR2: transfected HEK293 cells; details: APC-labeled ligand 10 μg/mL; HEK293 cells expressing HuCXCR2
Description: as §1, §2

B1: Hu5A-5E11: humanized antibody VH1/VL1; VH SEQ ID NO: 76, VL SEQ ID NO: 78 (antibody, V domains shown)
VH: QVQLVQSGAEVKKPGSSVKVSCKASGYAFSDYWMNWVRQAPGQGLEWIGQIYPGSGDTNYNAKFKGKGTITADKSTSTAYMELSSLRSEDTAVYYCARERDYDVAMDYWGQGTTVTVSS
VL: DIQMTQSPSSLSASVGDRVTITCKASQDINKYIAWFQQKPGKAPKLVIHYTSILQPGVPSRFSGSGSGTDYTFTISSLQPEDIATYYCLQYDNLPWTFGGGTKVEIK
In the case of B1, the “Dose at which the migration suppressive effect tended to reach a plateau” value (CXCR2-expressing cells) is reported as no less than 60 μg/head, the “Inhibitory activity against the binding of HuCXCL2 to cells (fluorescence intensity)” value (HuCXCL2) is reported as “reduce the fluorescence intensity of the cells in an antibody concentration-dependent manner” and the “Inhibitory activity against the binding of HuCXCL3 to cells (fluorescence intensity)” value (HuCXCL3) is reported as “reduce the fluorescence intensity of the cells in an antibody concentration-dependent manner”. The “Inhibitory activity against the binding of MsCXCL1 to GAG” value (MsCXCL1 [1]) was “inhibit the binding of HuCXCL1, 2, 3 and 5 and MsCXCL1 to GAG in an antibody concentration-dependent manner”, the “Inhibitory activity against the binding of HuCXCL5 to cells (fluorescence intensity)” value (HuCXCL5) was “reduce the fluorescence intensity of the cells in an antibody concentration-dependent manner” and the “Inhibitory activity against the binding of MsCXCL1 to cells (fluorescence intensity)” value (MsCXCL1 [2]) was “reduce the fluorescence intensity of the cells in an antibody concentration-dependent manner”.
